Results on 1 molecule are retold here after patent publication CN110684105A.

The test concerns the target 重组HSP90蛋白 (recombinant HSP90 protein expressed in E. coli BL21 from pET-30a-HSP90) (human) (UniProt P08238). As to the kind of experiment: indirect ELISA, HSP90 recombinant protein coated at 1 μg/mL, antibody diluted 1:10^3 to 1:10^6, HRP goat anti-mouse. For orientation: In an ELISA, binding on a coated surface is turned into a signal by an enzyme label.

B1: 抗HSP90单克隆抗体 46-2-C9 (anti-HSP90 monoclonal antibody from hybridoma 46-2-C9, purified from mouse ascites) (antibody, V domains shown)
VH: EVQLQQSGPELVKPGASVKISCKASGYSFTGYYMHWVKQSHVKSLEWIGRINPYNGATSYNQNFKDKASLTVDKSSSTAYMELHSLTSEDSAVYYCARSKKYGNYTWFAYWGQGTLVTVSA
VL: DVQMTQSQKFMSTSVGDRVSVTCKASQNVGTNVAWYQQKPGQSPKALIYSASYRYSGVPDRFTGSGSGTDFTLTISNVQSEDLAEYFCQQYNSYIFTFGSGTKLEIKR
Regarding B1, the 效价 (ELISA titer, dilution factor) (dilution factor) was 100000.
